{"source": "patent US20250263483A1", "about": "(TRUSTEES OF COLUMBIA UNIVERSITY IN THE CITY OF NEW YORK, published 2025)", "binders": {"B1": {"name": "anti-PAG antibody clone 7M16A (antibody, mouse IgG1, kappa, V domains shown)", "VH": "EVQLQQSGPELVKPGASVKMSCKASGYTFTSYVMHWVKQKPGQGLEWIGYIYPYNDGTKYNEKFKGKATLTSDKSSSTAYMELSSLTSEDSAVYYCARYKYGQGFAYWGQGTRVTVSA", "VL": "DIQMTQSPASLSVSVGETVTITCRASENIYSNLAWYQQKQGKSPQLLVYAATNLADGVPSRFSGSGSGTQYSLKINSLQSEDFGSYYCQHFWGTPWTFGGGTKLEIKR", "notes": "Mouse hybridoma monoclonal, tested as hybridoma supernatant and as purified antibody"}, "B2": {"name": "anti-PAG antibody clone 8D04A (antibody, mouse IgG1, kappa, V domains shown)", "VH": "QIQLVQSGPELKKPGETVKISCKASGYIFTNYGMNWVKQAPGKGLKWMGWINPYTGEATYDDDFKGRFAFSLETSANTAYLQINNLKNEDTATYFCAKTGTTYWGQGTLVTVSA", "VL": "QIVLTQSPAIMSASPGEKVTMTCSASSSVSYMYWYQQKSGTSPKRWIYDTSKLASGVPARFSGSGSGTSYSLTINNMEAEDAATYYCQQWSSNPLTFGAGTKLELKR", "notes": "Mouse hybridoma monoclonal"}, "B3": {"name": "7M-hu-1 (humanized version of 7M16A) (antibody, V domains shown)", "VH": "QVQLVQSGAEVKKPGASVKVSCKASGYTFTSYVMHWVRQAPGQGLEWMGYIYPYNDGTKYNEKFKGRVTMTRDTSTSTVYMELSSLRSEDTAVYYCARYKYGQGFAYWGQGTTVTVSS", "VL": "DIQMTQSPSSVSASVGDRVTITCRASENIYSNLAWYQQKPGKAPKLLIYAATNLADGVPSRFSGSGSGTDFTLTISSLQPEDFATYYCQHFWGTPWTFGGGTKLEIKR"}}, "key": {"[1]": {"molecular_target": "T1, mouse PAG, endogenous on wild-type C57BL6 splenocytes (mouse, UniProt Q3U1F9 1-429)", "T1 construct": "whole, on cells; also called murine PAG", "T1 sequence (looked up)": "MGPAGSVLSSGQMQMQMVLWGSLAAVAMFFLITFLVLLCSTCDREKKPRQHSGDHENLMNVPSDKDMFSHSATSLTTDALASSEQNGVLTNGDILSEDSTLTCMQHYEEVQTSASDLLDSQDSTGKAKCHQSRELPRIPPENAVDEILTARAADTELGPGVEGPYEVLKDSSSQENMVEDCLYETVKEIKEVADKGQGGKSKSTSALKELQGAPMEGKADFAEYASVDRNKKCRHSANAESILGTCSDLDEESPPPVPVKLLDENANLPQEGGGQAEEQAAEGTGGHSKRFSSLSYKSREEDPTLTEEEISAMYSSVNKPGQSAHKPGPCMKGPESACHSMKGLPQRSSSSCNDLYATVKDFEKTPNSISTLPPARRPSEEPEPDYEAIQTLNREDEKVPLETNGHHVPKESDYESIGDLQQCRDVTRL", "test": "flow cytometry, non-permeabilized WT vs PAG KO mouse splenocytes (FIG. 2B)", "procedure": "(§1) Non-permeabilized cells were stained with the primary antibody clones in FACS Buffer [HBSS without Ca²⁺/Mg²⁺, FBS (3%), NaN3 (0.02%), and CaCl2 (2.5 mM)], then washed and stained with fluorescently conjugated secondary antibody (goat anti-mouse, Jackson ImmunoResearch, Cat. No. 115-006-003). Stained cells were then fixed in 1% paraformaldehyde. Splenocytes were pre-treated with Fc receptor block (Biolegend, Cat. No. 422301). PAG-GFP expressing cells were fixed in 1% paraformaldehyde. Events were recorded using FACSCanto (BD), and analyzed using FlowJo software (Ver. 10.8.1)."}, "[2]": {"molecular_target": "T2, human PAG peptide (extracellular portion of human PAG) (human)", "T2 construct": "The immunogen was amino acids 1-16 of human PAG; also called human PAG-1 peptide; human PAG protein", "T2 peptide": "MGPAGSLLGSGQMQIT", "test": "dose-response ELISA, immobilized human PAG, purified monoclonal antibody (FIG. 2F)", "procedure": "(§2) Primary ELISA was done for screening binding of hybridoma supernatants to human, murine, and cynomolgus PAG (2 μg/mL). Second ELISA for confirmation of binding of purified monoclonal antibodies to human PAG, 96-well half area high binding ELISA plates (Corning 3690) were coated 1 μg/mL of human PAG protein in 1×TBS at room temperature for 2 hours. The plate was washed with TBS containing 0.05% Tween 20 and blocked with 2% BSA in TBS for 1 hour at room temperature. After 1 hour, the plate was washed and diluted PAG antibodies in 1×TBS were dispensed to respective wells and incubated for 1 hour at room temperature. The plate was washed and incubated with peroxidase-Affinipure F(ab′)2 goat anti-mouse IgG (Jackson Immuno Research, Cat. No. 115-006-003) at 1:5000 dilution for 1 hour at room temperature. After the plate was washed, 3, 3′, 5, 5′ tetramethyl benzidine (TMB) substrate (Biolegend, Cat. No. 421101) was added to each well. The reaction was stopped by adding 2N H2SO4. Absorbance was measured on plate reader (Biotek Synergy H1) and results calculated by A=A450 nm-A570 nm."}, "[3]": {"molecular_target": "T3, PAG-GFP (full-length human PAG fused to GFP) expressed on cells (human, UniProt Q9NWQ8 1-432)", "T3 construct": "Stably expressed in A549 cells (flow cytometry) and Jurkat T cells (microscopy); also called PAG-GFP (OE); not shown: GFP tag (peGFP-N1 / pCDH-PAG-GFP constructs)", "T3 sequence": "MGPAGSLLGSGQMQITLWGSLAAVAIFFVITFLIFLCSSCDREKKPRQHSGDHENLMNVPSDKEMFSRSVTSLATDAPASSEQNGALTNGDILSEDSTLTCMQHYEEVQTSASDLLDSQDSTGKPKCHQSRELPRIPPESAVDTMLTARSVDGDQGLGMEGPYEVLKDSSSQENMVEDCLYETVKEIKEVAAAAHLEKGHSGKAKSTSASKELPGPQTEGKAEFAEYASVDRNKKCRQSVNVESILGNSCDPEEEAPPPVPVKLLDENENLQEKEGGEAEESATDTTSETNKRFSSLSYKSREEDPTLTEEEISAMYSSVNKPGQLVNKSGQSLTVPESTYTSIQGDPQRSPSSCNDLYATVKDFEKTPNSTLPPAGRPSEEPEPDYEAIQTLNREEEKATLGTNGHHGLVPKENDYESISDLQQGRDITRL", "test": "flow cytometry, non-permeabilized A549 cells stably expressing PAG-GFP (FIG. 7B; FIG. 2E)", "procedure": "as §1"}, "[4]": {"molecular_target": "T2, human PAG peptide (extracellular …)", "test": "dose-response ELISA, immobilized human PAG, purified monoclonal antibodies (FIG. 2F)", "procedure": "as §2"}, "[5]": {"molecular_target": "T2, human PAG peptide (extracellular …)", "test": "ELISA on human PAG-1 peptide (FIG. 10)"}}}
{"binder": "B1", "values": [{"measurement": "binding result", "setting": "[1]", "value": "binds"}, {"measurement": "binding result", "setting": "[2]", "value": "binds"}, {"measurement": "binding result", "setting": "[3]", "value": "binds"}]}
{"binder": "B2", "values": [{"measurement": "binding result", "setting": "[4]", "value": "no binding"}]}
{"binder": "B3", "values": [{"measurement": "binding result", "setting": "[5]", "value": "binds"}]}
